{"source": "IntAct's records for PubMed 31570497", "parents": {"B1": {"name": "Envelopment polyprotein (Uukuniemi virus (strain S23)), P09613 (parent)", "chain": "MVRTYLLLLLLCGPATPFFNHLMDVTRRLLDSSNATWQRDQPDTHRLSRLDAHVMSMLGVGSHIDEVSVNHSQHLHNFRSYNCEEGRRTLTMMDPKSGKFKRLKCNENQTLSKDCASCIEKKSSIMKSEHLVYDDAICQSDYSSPEAMPDHETHLCRIGPLHIQHCTHEAKRVQHVSWFWIDGKLRVYDDFSVSWTEGKFLSLFDCLNETSKDHNCNKAVCLEGRCSGDLQFCTEFTCSYAKADCNCKRNQVSGVAVVHTKHGSFMPECMGQSLWSVRKPLSKRSVTVQQPCMDCESDCKVDHILVIVRHFYPDHYQACLGSTCLTGRAKDKEFKIPFKMADRLSDSHFEIRIWDKERSNEYFLESRCESVDACAAITCWFCRANWANIHCFSKEQVLILVAVSSLCILLLASVLRALKVIATFTWKIIKPFWWILSLLCRTCSKRLNKRAERLKESIHSLEEGLNNVDEGPREQNNPARAVARPNVRQKMFNLTRLSPVVVGMLCLACPVESCSDSISVTASSQRCSTSSDGVNSCFVSTSSLLQVSPKGQESCLILKGPTGTAVDSIRIKTTDIKLECVRRDLYWVPRVTHRCIGTRRCHLMGACKGEACSEFKINDYSPEWGHEEELMAQLGWSYCVEQCGGALCQCFNMRPSCFYLRKTFSHLSQDAFNIYECSEWSYRINVLVSTNSTHSNLTLKLGVPDSIPHGLISLSSVSQPPAIAYSECFGEDLHGTKFHTVCNRRTDYTLGRIGEIQCPTKADALAVSKRCISSDSIIFSKVHKDSVDCQSSIIDPMTIRNRNKLPSTVGSVTFWPTETSVEAAIPDLASATMLIRLDGYTIQFRSDSNKCSPRFLSLSGCYNCEAGAKLELEHVTDFGTALGILECPSLGYTTYYEVKNTLEKSIRTMHLNGSHVEAKCYFRCPNSESQLTIRGELIYLFNDDIRHHNQTLSPGLSPKSGSGWDPFGWFKASWLRAIWAILGGTVSLIIGVVIIYMVFTLCLKVKKS"}}, "data": [{"variants_of": "B1", "conditions": "with gbf1_human GBF1, Q92538", "values": [{"variant": "L461A;E462A;E463A;G464A;L465A", "effect of a mutation on the interaction": "with no effect"}, {"variant": "L438A;L439A", "effect of a mutation on the interaction": "with no effect"}]}]}
